# Data as given in the nanobody polyreactivity screen of Harvey et al. (2022).
# Experiment: yeast display, Sf9 membrane polyspecificity reagent, FACS + sequencing; frameworks hold sequencing errors
# In short: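 Using colony PCR, genes from sorted yeast display clones were amplified, then sequenced on MiSeq at 2 × 250 and filtered by CDR length. The clones had been stained with 10% biotinylated, detergent-solubilized Sf9 membrane reagent for 1 hour at 4 °C and sorted by FACS into low and high (top ~1%) gates on anti-HA and streptavidin fluorescence. Polyreactivity labels come from the gate of origin.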
row,Sequence,polyreactivity (PSR sort gate)
1,QVQLVESGGGLVQAGGSLRLSCAASGRTFTAYAMGWYRQAPGKERELVARITSVDSTNYADSVKGRFTISRDNAKNTVYLHMYSLKPDDTAVYYCNATFGYPFVDYDDYWGQVTQVTVSS,low polyreactivity
2,QVQLVESGGGLVQAGGSLRLSCAASGRTFTEYAMGWYRQAPGKERELGAGIDSGSGSTYYADSVKGRFTISRDYAKNTVYLQMNSLHPEDTAVYYCAARDVWSPYDTDVDYWGQGTQVTVSS,low polyreactivity
3,QVQLVESGGGLVQAGGSLRLSCAASGRTFTFNVMGWYRQAPGKERELVAVITGGDDTYYADSVKGRFTISRDNAKNTVYFQMNSLKPVDTAVYYCNAAAGATTLVRPYVEFDYWGQGTQVNVSS,low polyreactivity
4,QVQLVESGGGLVQAGGSLRLSCAASGRTFTFYAMGWYRQAPGKERELVAAISTRGGRTYYADSVKGRFTISRDNAKNTVYLQMNSLKPEDTAVYYCAARARRRYYYWGQGTQVTVSS,high polyreactivity
5,QVQLVESGGGLVQAGGSLRLSCAASGRTFTFYTMGWYRQAPGKERELVARITGGGSTYYADSVKGRFTISRDNAKNTVYLQMNSLKPEDTAVYYCAAASGTKRLYRGTRGDYWGQGTQVTVSS,low polyreactivity
6,QVQLVESGGGLVQAGGSLRLSCAASGRTFTGNAMGWYRQAPGKERELVAAISTSGTRTTYADSVKGRFTISRDNAKNPVYLQMTSLKPEDTAVYYCAALRKCLYRTYTYDYWGQGTQVTVSS,high polyreactivity
7,QVQLVESGGGLVQAGGSLRLSCAASGRTFTGYVMGWYRQAPGKDRELVAGSSRRGGRTYYADSVKGRYTISRDNAKNTVYLQMNSLKPEDTEVYYCAAAVTSSDPYDYWGQGTQVTVSS,high polyreactivity
8,QVQLVESGGGLVQAGGSLRLSCAASGRTFTHNTMGWYRQAPGKERELVAAISRSGASTYYADSVKGRFTISRDNAKNTVYLQMNSLKPEDTAVYYCNAYSRPHFGYVVGTKSRHGYWGQGTQVTVSS,high polyreactivity
9,QVQLVESGGGLVQAGGSLRLSCAASGRTFTHNVMGWYRQAPGKERELVAGISSTGGSTYYADSVKGRFTISRDNAKNTVYLQMNSLKPEDTAVYYCAVIGYHYSAISPPSQTRQGYDYWGQGTQVTLSS,low polyreactivity
10,QVQLVESGGGLVQAGGSLRLSCAASGRTFTHYAMGWYRQAPGKERELVAAISGRGGNTYYADSVKGRFTISRDNAKNTVYLQMNSLKPEDTAVYYCNTAYVAKGYGYWGQGTQVTVSS,high polyreactivity
11,QVQLVESGGGLVQAGGSLRLSCAASGRTFTHYAMGWYRQAPGKERELVASISDGGRTHYADSVKGRFTISRDNAKNTVYLQMNSLKPEDTAVYYCATDRYPTRRYDYWGQGTQVTVSS,low polyreactivity
12,QVQLVESGGGLVQAGGSLRLSCAASGRTFTIYAMGWYRQAPGKERELVAAISSSSGSTYYADSVKGRFTISRDNAKNTVYLQMNSLKPEDTAVYYCAARTTYRSSKRYGYWGQGTQVTVSS,high polyreactivity
13,QVQLVESGGGLVQAGGSLRLSCAASGRTFTKYAKGWYRQAPGKERELVAAISNSGGSTFYADSVKGRFTISRDNAKNTVYLQMNSLKPEDTAVYYCAVDLGDTQYVPFDYWGQGTQVTVSS,low polyreactivity
14,QVQLVESGGGLVQAGGSLRLSCAASGRTFTPYTMGWYRQAPGKEREFVAAITFRGGSTYYADSVKGRFTLSRDNAKNTVYLQMNSLKPEDTAVYYCNARGHGGWGTSMYYWGQGTQVTVSS,high polyreactivity
15,QVQLVESGGGLVQAGGSLRLSCAASGRTFTRYAMGWSRQAPGKERELVAAITSTGSTYYADSVKGRFTISRDNAKNTVYLQMNSLKPEDTAVYYCNKVGIRYYYGYDYWGQGTQVTVSS,high polyreactivity
16,QVQLVESGGGLVQAGGSLRLSCAASGRTFTRYSMGWYRQAPGKERELVATINSSGDRTYYADSVKGRFTISRDNAKNTVYLQMNSLKPEDTAVYYCAKRWSPYLYGYWGKGTQVTVSS,high polyreactivity
17,QVQLVESGGGLVQAGGSLRLSCAASGRTFTRYVMGWYRQAPAKEREVVAAISSSGGTYYADSVKGRFTISRDNAKNTVYLQMNSLKPEDTAVYYCAVGSKLSRSYGYYYWGQGTQVTVSS,high polyreactivity
18,QVQLVESGGGLVQAGGSLRLSCAASGRTFTSNAMRWYRQEPGNERELVAAISNRGTRTYYADSVKGRFTISRDNAKNTVYLQMHILKPEETAVYYCAASERDQRFKHYYWGLGTQVTVSS,high polyreactivity
19,QVQLVESGGGLVQAGGSLRLSCAASGRTFTSYGMGWYRPEPGKERELVAAITRSTGGTYYADSVKGRFTISRDHAKNTVYLQMNSLKPEDTAVYYCNTGPLYSPFDYWGQGTQVTVSS,low polyreactivity
20,QVQLVESGGGLVQAGGSLRLSCAASGRTFTTYAMGWYRQSPGKERELVAAISGSGGSTYYADSVKGRFTISRDNAKNTVYLQMNSLKPEDTAVYYCATAYYYHGGYYYPYDDYWGQGTQVTVSS,low polyreactivity
21,QVQLVESGGGLVQAGGSLRLSCAASGRTFTVNAMGWSRQAPGKERELVAAISTSTGRTYYADSVKGRFTISRDNAKNTVYLQMNSLKPEDTAVYYCAAQSPYRGYYYTYYLYDYWGQGTQVTVSS,high polyreactivity
22,QVQLVESGGGLVQAGGSLRLSCAASGRTFTVNPMGWYRQAPGKERELVAAITSGGTTKYADSVKGRFTISRDNAKNTVYLQMNSLKPEDTAVYYCAARVYFPVQYPWFYFEYGYWGQGTQVTVSS,high polyreactivity

row,Sequence,polyreactivity (PSR sort gate)
1,QVQLVESGGGLVQAGGSLRLSCAASGRTFTVYTMGWYRQAPGKERELVAVISTGGRTYYADSVKGRFTISRDNAKNTVYLQMNSLNPEDTAVYYCAAKFTREYYWGQGTQVTVSS,high polyreactivity
2,QVQLVESGGGLVQAGGSLRLSCAASGRTFTYNAMGWYRQAPGKERELDAAISWNGGRTYYADSVKGRFTISRDNAKNTVYLQMNSLKPEDTAVYYCAARSPKDSYSIQRYYWGQGTQVTVSS,high polyreactivity
3,QVQLVESGGGLVQAGGSLRLSCAASGRTFTYNTMGWYRQAPGKERELVAAISSSGGSTYYADSVKGRFTISRDNAKNTVYLKMNCLKPEDTAVYYCAKRYFSSSRYYYWGQGTKVTVSS,high polyreactivity
4,QVQLVESGGGLVQAGGSLRLSCAASGRTFTYYAMGWSRQAPGKERECVSAISSTGTSTYYADSVKGRFTISRDNAKNTVYLQMNSLKPEDTAVYYCNARVATYRLHSKFYYWGQGTQVTVSS,high polyreactivity
5,QVQLVESGGGLVQAGGSLRLSCAASGRTFTYYAMGWYRQAPGKERELVAAISSRGGSTYYADSVKGRFTISRDNAKNTVYLQMNSLNPEDTAVYYCAAVHRFTRASRWPDFDYWGQGTQVTVSS,high polyreactivity
6,QVQLVESGGGLVQAGGSLRLSCAASGRTFTYYAMGWYRQAPGKERELVAAISSTGGSTYYADSVKGRFTISRDNAKNTVTLQMNSLKPEDTAVYYCNVAFDDFDYWGQGTQVTVSS,low polyreactivity
7,QVQLVESGGGLVQAGGSLRLSCAASGRTFTYYAMGWYRQAPGKERELVAAITSGGRTYYADSVKGRFTISRDNAKNTVYLQMKSLKPEDTAVYYCAARRIRDYYRSYDYWGQGTQVTVSS,high polyreactivity
8,QVQLVESGGGLVQAGGSLRLSCAASGRTFTYYGMGWYRQAPGKERELVAAITERGDSTYYADSVKGRFTISRDNAKNTVYLQMNSLKPEDTAVYYCAAAEHLTRPSSPTQDGDHWGQGTQVTVSS,low polyreactivity
9,QVQLVESGGGLVQAGGSLRLSCAASGRTFTYYSMGWYRQAPGKERELVAAISSGGRTNYADSVKGRFTISRDNAKNTVYLQMNSLKPEDTAVYYCAADGTTFRNRYYFHRMDFWGQGTQVTVSS,high polyreactivity
10,QVQLVESGGGLVQAGGSLRLSCAASGRTFVANAMGWYRQAPGKEREFVAAITGGDSTYYADSVKGRFTISRDNAKNTVYLQMNSLKPEDTAVYYCAAPYNFWNFFDLIYVWDGYDYWGQGTQVTVSS,low polyreactivity
11,QVQLVESGGGLVQAGGSLRLSCAASGRTFVDNGMGWYRQAPGKERELVAAITYSGGGTYYADSVKGRFTISRDNAKNTVYLQMNSLKPEDTAVYYCNAELGPVDYYGGVTPEYDYWGQGTQVTVSS,low polyreactivity
12,QVQLVESGGGLVQAGGSLRLSCAASGRTFVFNAMGWYRQAPGKERELVAAISRSGGSTYYADSVKGRFTISRDNAKNTVYLQMNSLKTEDTAVYYCAADTPYLRRRLGMDYWGQGTQVTVSS,high polyreactivity
13,QVQLVESGGGLVQAGGSLRLSCAASGRTFVFNDMGWYRQAPGKERELVAAITKNGGSTYYADSVKGRFTISRDTAKNTVYLHMNSLKPEDTAVYYSNASFQYYDYWGQGTQVTVSS,low polyreactivity
14,QVQLVESGGGLVQAGGSLRLSCAASGRTFVFYAMGWYRPAPGKERQLVAAITSGTSTNYADSVKGRFTISRDNAKNTGYLQMNSLNPEDTAVYYCAAYWTDLTYSIGFGYWGQGTQVTVSS,low polyreactivity
15,QVQLVESGGGLVQAGGSLRLSCAASGRTFVHNDMGWYRQAPGKERQLVAAINVSDGSTYYADSVKGRFTISRDNAKNTVYFQMNSLKPEDTAVYYCAKASYIIFRFEYRSGYDYWGQGTQVTVSS,low polyreactivity
16,QVQLVESGGGLVQAGGSLRLSCAASGRTFVHYAMGWYRPAPGKERELVAAITWNGGRTYYADSVKGRFTISRDNAKNTVYLQMNSLKPEDTAVYYCAADGKYYHRRPGWPIYDYWGQGTQVTVSS,high polyreactivity
17,QVQLVESGGGLVQAGGSLRLSCAASGRTFVIYDMGWYRQAPGKERELVAGITRSGGSTYADSVKGRFTISRDNAKNTVYLQMNSLKPEDTAVYYCARRKLYHKSPYDYWGQGTQVTVSS,low polyreactivity
18,QVQLVESGGGLVQAGGSLRLSCAASGRTFVKNAMGWYRLAPGKERELVAAISRRGGSTYYADSVKGRFTISRDNAKNTVYLQMNSRKPEDTAVYYCAAPYTRPTTGYDYWGQGTQVTVSS,high polyreactivity
19,QVQLVESGGGLVQAGGSLRLSCAASGRTFVKNAMGWYRQAPGKERELVATISSSGASTRYADSVKGRFTISRDNAKNTVYLQMNSLKPDDSAVYYCAAGYGFPRDYWGQGTQVTVSS,high polyreactivity
20,QVQLVESGGGLVQAGGSLRLSCAASGRTFVKNAMGWYRQAPGKERELVAVISQSGGSTYYADSVKGRFTISRDNAKNTVYLQMNCLKPEDTAVYYCAARYSYYRQGDSWYNYNYWGQGTQVTVSS,high polyreactivity
21,QVQLVESGGGLVQAGGSLRLSCAASGRTFVKYAMGWYRQAPGKERELVAAISWSGGSTYYADSVKGRFTISRDKAKNTVYLQMNSLKPEDTAVYYCAAPSSRGQGRNFDYWGQGTQVTVSS,high polyreactivity
